Assay results: US20240209076A1 (KODIAK SCIENCES, published 2024)
Where a chain is given by its changes, count along the chain named. Names and notes keep the numbering of the source.

B1: anti-IL-6 antibody, heavy chain S35H G66D, light chain M32L/M50D/N52S/M88Q (antibody, human IgG1, V domains shown)
VH: EVQLVESGGGLVQPGGSLRLSCAASGFTFSPFAMHWVRQAPGKGLEWVAKISPGGSWTYYSDTVTDRFTFSLDTSKSTAYLQMNSLRAEDTAVYYCARQLWGYYALDIWGQGTLVTVSS
VL: DIQLTQSPSSLSASVGDRVTITCSASISVSYLYWYQQKPGKAPKLLIYDDSSLASGVPSRFSGSGSGTDFTLTISSLQPEDFATYYCQQWSGYPYTFGQGTKVEIK
notes: see m23; engineered human IgG1; also called S35H G66D double mutant
B2: anti-IL-6 antibody, heavy chain S35H G66D, light chain wild-type (antibody, human IgG1, V domains shown)
VH: B1 VH
VL: B1 VL with L32M, D50M, S52N, Q88M
notes: as for B1
B3: VEGFR-Anti-IL-6 (sequences 1A-2A-3H, light chain 4A) (other)
heavy: SDTGRPFVEMYSEIPEIIHMTEGRELVIPCRVTSPNITVTLKKFPLDTLIPDGKRIIWDSRKGFIISNATYKEIGLLTCEATVNGHLYKTNYLTHRQTNTIIDVVLSPSHGIELSVGEKLVLNCTARTELNVGIDFNWEYPSSKHQHKKLVNRDLKTQSGSEMKKFLSTLTIDGVTRSDQGLYTCAASSGLMTKKNSTFVRVHEKGGGGSGGGGSEVQLVESGGGLVQPGGSLRLSCAASGFTFSPFAISWVRQAPGKGLEWVAKISPGGSWTYYSDTVTDRFTFSLDTSKSTAYLQMNSLRAEDTAVYYCARQLWGYYALDVWGQGTLVTVSSASTKGPSVFPLAPSSKSTSGGTAALGCLVKDYFPEPVTVSWNSGALTSGVHTFPAVLQSSGLYSLSSVVTVPSSSLGTQTYICNVNHKPSNTKVDKKVEPKSCDKTHTCPPCPAPEAAGAPSVFLFPPKPKDTLMISRTPEVTCVVVDVSHEDPEVKFNWYVDGVEVHNAKTKPREEQYNSTYRVVSVLTVLHQDWLNGKEYKCKVSNKALPAPIEKTISKAKGQPREPQVYTLPPSREEMTKNQVSLTCLVKGFYPSDIAVEWESNGQPENNYKTTPPVLDSDGSFFLYSKLTVDKSRWQQGNVFSCSVMHEALHNHYTQKSLSCSPGK
light: DIQLTQSPSSLSASVGDRVTITCSASISVSYLYWYQQKPGKAPKLLIYDDSSLASGVPSRFSGSGSGTDFTLTISSLQPEDFATYYCQQWSGYPYTFGQGTKVEIKRTVAAPSVFIFPPSDEQLKSGTASVVCLLNNFYPREAKVQWKVDNALQSGNSQESVTEQDSKDSTYSLSSTLTLSKADYEKHKVYACEVTHQGLSSPVTKSFNRGEC
notes: linker 2A is the double Gly-Gly-Gly-Gly-Ser repeat
B4: VEGFR_variant_2-Anti-IL-6 (H95I) (other)
fusion: B3 heavy with H95I
light: B3 light
B5: VEGFR_variant_1-Anti-IL-6 (T94I) (other)
fusion: B3 heavy with T94I
light: B3 light
B6: VEGFR_variant_3-Anti-IL-6 (T94I/H95I) (other)
fusion: B3 heavy with T94I, H95I
light: B3 light
B7: VEGFR-Fc (VEGF trap Fc fusion, sequence 6A) (Fc fusion)
chain: SDTGRPFVEMYSEIPEIIHMTEGRELVIPCRVTSPNITVTLKKFPLDTLIPDGKRIIWDSRKGFIISNATYKEIGLLTCEATVNGHLYKTNYLTHRQTNTIIDVVLSPSHGIELSVGEKLVLNCTARTELNVGIDFNWEYPSSKHQHKKLVNRDLKTQSGSEMKKFLSTLTIDGVTRSDQGLYTCAASSGLMTKKNSTFVRVHEKDKTHTCPPCPAPEAAGAPSVFLFPPKPKDTLMISRTPEVTCVVVDVSHEDPEVKFNWYVDGVEVHNAKTKPREEQYNSTYRVVSVLTVLHQDWLNGKEYKCKVSNKALPAPIEKTISKAKGQPREPQVYTLPPSREEMTKNQVSLTCLVKGFYPSDIAVEWESNGQPENNYKTTPPVLDSDGSFFLYSKLTVDKSRWQQGNVFSCSVMHEALHNHYTQKSLSCSPGK
notes: VEGF trap with engineered IgG1 Fc (L234A, L235A, G237A, L443C); also called VEGFR-Trap Fc fusion
B8: anti-IL-6 antibody, heavy chain WT / light chain M32L, M50D, N52S, M88Q (antibody, human IgG1, V domains shown)
VH: B1 VH with H35S, D66G
VL: B1 VL
notes: Human IgG1
B9: anti-IL-6 antibody, heavy chain T65Q, G66D / light chain M32L, M50D, N52S, M88Q (antibody, human IgG1, V domains shown)
VH: B1 VH with H35S, T65Q
VL: B1 VL
notes: Human IgG1
B10: anti-IL-6 antibody, heavy chain T63E, G66D / light chain M32L, M50D, N52S, M88Q (antibody, human IgG1, V domains shown)
VH: B1 VH with H35S, T63E
VL: B1 VL
notes: Human IgG1
B11: anti-IL-6 antibody, heavy chain S35H, G66D / light chain M32L, M50D, N52S, M88Q (antibody, human IgG1, V domains shown)
VH: B1 VH
VL: B1 VL
notes: Human IgG1
B12: anti-IL-6 antibody, heavy chain T63Q, G66D / light chain M32L, M50D, N52S, M88Q (antibody, human IgG1, V domains shown)
VH: B1 VH with H35S, T63Q
VL: B1 VL
notes: Human IgG1
B13: anti-IL-6 antibody, heavy chain T63K, G66D / light chain M32L, M50D, N52S, M88Q (antibody, human IgG1, V domains shown)
VH: B1 VH with H35S, T63K
VL: B1 VL
notes: Human IgG1
B14: anti-IL-6 antibody, heavy chain G66D / light chain M32L, M50D, N52S, M88Q (antibody, human IgG1, V domains shown)
VH: B1 VH with H35S
VL: B1 VL
notes: Human IgG1
B15: anti-IL-6 antibody, heavy chain T63E, G66D / light chain M32L, M50D, N52S, M88Q (antibody, IgG1, V domains shown)
VH: B1 VH with H35S, T63E
VL: B1 VL
notes: Full IgG1 (Expi293); VL = variant III
B16: anti-IL-6 antibody, heavy chain S35H, G66D / light chain M32L, M50D, N52S, M88Q (antibody, IgG1, V domains shown)
VH: B1 VH
VL: B1 VL
notes: as for B15
B17: anti-IL-6 antibody, heavy chain G66D / light chain M32L, M50D, N52S, M88Q (antibody, IgG1, V domains shown)
VH: B1 VH with H35S
VL: B1 VL
notes: as for B15
B18: anti-IL-6 antibody, heavy chain T63K, G66D / light chain M32L, M50D, N52S, M88Q (antibody, IgG1, V domains shown)
VH: B1 VH with H35S, T63K
VL: B1 VL
notes: as for B15
B19: anti-IL-6 antibody, heavy chain T65Q, G66D / light chain M32L, M50D, N52S, M88Q (antibody, IgG1, V domains shown)
VH: B1 VH with H35S, T65Q
VL: B1 VL
notes: as for B15
B20: anti-IL-6 antibody, heavy chain T63Q, G66D / light chain M32L, M50D, N52S, M88Q (antibody, IgG1, V domains shown)
VH: B1 VH with H35S, T63Q
VL: B1 VL
notes: as for B15

These binders were tested against recombinant human IL-6 (human, UniProt P05231 30-212) (assay: SPR, antibody captured on Protein A, 37 C).
Sequence of recombinant human IL-6 (P05231 30-212 limits assumed): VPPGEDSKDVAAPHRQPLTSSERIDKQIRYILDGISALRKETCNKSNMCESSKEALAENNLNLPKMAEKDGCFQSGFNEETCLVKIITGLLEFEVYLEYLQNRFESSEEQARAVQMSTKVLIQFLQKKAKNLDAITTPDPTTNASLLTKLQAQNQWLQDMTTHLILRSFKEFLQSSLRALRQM
Procedure: (§1) Antibodies were captured on a Protein A chip (GE) by injecting 1:20 cell supernatant dilutions at 10 μL/min for 60 seconds. […] The sensor chip was regenerated by a 60 seconds injection of 10 mM Glycine pH 1.7 at the flow rate of 50 μL/min. […] For this setup, 1 μg/mL of purified antibody was injected over a Protein A chip at 10 μL/min for 25 seconds. […] The sensor chip was regenerated by a 60 seconds injection of 10 mM Glycine pH 1.7 at flow rate of 50 μL/min. Data analysis for supernatant and purified samples were performed using BIAevaluation software (GE). All sensorgrams were double reference subtracted and fit using a 1:1 Langmuir binding model.

Row | Binder | fold increase in affinity
1 | B1 | ~1.3 fold
2 | B2 | ~2 fold

These binders were tested against T1, VEGF-A165 (UniProt P15692-4 27-191) (assay: Biacore T200 SPR at 37 C, binder captured on Protein A chip, VEGF-A165 0.19 to 15 nM in five steps, 60 min dissociation, 1:1 Langmuir fit).
T1 construct: analyte of the Biacore assays
T1 sequence (P15692 other isoform, or with tags, fused parts or gaps limits assumed): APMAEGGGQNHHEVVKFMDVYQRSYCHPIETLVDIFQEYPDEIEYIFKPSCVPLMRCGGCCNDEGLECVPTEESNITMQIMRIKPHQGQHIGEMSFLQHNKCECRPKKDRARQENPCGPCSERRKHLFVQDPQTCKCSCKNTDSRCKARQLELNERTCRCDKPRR
Procedure: FIGS. 14A-14F illustrate the results for a series of Biacore assays used to determine the affinity between Anti-VEGF agents and VEGF. Binding kinetics between molecules were measured using a Biacore T200 (GE Healthcare) at 37° C. in buffer HBS-EP+ containing 1 mg/mL BSA. […] The sensor chip surface was regenerated by 60 seconds injection of 10 mM Glycine, pH 1.7 at a flow rate of 50 μl/min. All sensorgrams were double reference subtracted and fit using a 1:1 Langmuir binding model.

Row | Binder | Kd | koff | kon
3 | B3 | 7.98 pM | 0.000603 s⁻¹ | 7.55e+07 M⁻¹ s⁻¹
4 | B4 | 14.3 pM | 0.00164 s⁻¹ | 1.15e+08 M⁻¹ s⁻¹
5 | B5 | 18.5 pM | 0.00199 s⁻¹ | 1.08e+08 M⁻¹ s⁻¹
6 | B6 | 18.7 pM | 0.00266 s⁻¹ | 1.42e+08 M⁻¹ s⁻¹

These binders were tested against VEGF (UniProt P15692-4 27-191, limits assumed) (assay: cell-based or functional assay).
Sequence of VEGF (P15692 other isoform, or with tags, fused parts or gaps limits assumed): as above

Row | Binder | cell-based VEGF stimulated VEGFR reporter assay (KDR/VEGF HEK293, luminescence), IC50
7 | B3 | 180 pM

What follows are binders tested against T1, VEGF-A165 (assay: SPR (Biacore T200), 37 C, binder captured on a Protein A chip, VEGF-A165 0.19 to 15 nM flowed over, 1:1 Langmuir fit).

Row | Binder | Kd | koff | kon
8 | B7 | 10.2 pM | 9.29e-05 s⁻¹ | 9.14e+06 M⁻¹ s⁻¹

Each binder was assayed against T2, human IL-6 (human, UniProt P05231 30-212) (assay: SPR (Biacore), purified antibody on Protein A chip, IL-6 flowed, 37 C).
Procedure: as §1
T2 sequence (P05231 30-212 limits assumed): as the sequence (P05231 30-212 limits assumed) above

Row | Binder | Kd | koff | kon
9 | B8 | 286 pM | 0.000319 s⁻¹ | 1.12e+06 M⁻¹ s⁻¹
10 | B9 | 209 pM | 0.00038 s⁻¹ | 1.82e+06 M⁻¹ s⁻¹
11 | B10 | 198 pM | 0.000327 s⁻¹ | 1.65e+06 M⁻¹ s⁻¹
12 | B11 | 212 pM | 0.000254 s⁻¹ | 1.2e+06 M⁻¹ s⁻¹
13 | B12 | 201 pM | 0.000341 s⁻¹ | 1.69e+06 M⁻¹ s⁻¹
14 | B13 | 252 pM | 0.000401 s⁻¹ | 1.59e+06 M⁻¹ s⁻¹
15 | B14 | 244 pM | 0.000412 s⁻¹ | 1.69e+06 M⁻¹ s⁻¹

The binders below were run against T3, human IL-6 (human, UniProt P05231 30-212) (assay: SPR Biacore, supernatant Ab on Protein A chip, 37 C).
T3 construct: IL-6 flowed over captured antibodies
T3 sequence (P05231 30-212 limits assumed): as above

Row | Binder | Kd | koff | kon
16 | B15 | 242 pM | 0.000485 s⁻¹ | 2e+06 M⁻¹ s⁻¹
17 | B16 | 166 pM | 0.000539 s⁻¹ | 3.24e+06 M⁻¹ s⁻¹
18 | B17 | 296 pM | 0.000483 s⁻¹ | 1.63e+06 M⁻¹ s⁻¹
19 | B18 | 246 pM | 0.000529 s⁻¹ | 2.15e+06 M⁻¹ s⁻¹
20 | B19 | 258 pM | 0.000562 s⁻¹ | 2.18e+06 M⁻¹ s⁻¹
21 | B20 | 259 pM | 0.000461 s⁻¹ | 1.78e+06 M⁻¹ s⁻¹

The binders below were run against T2, human IL-6 (assay: SPR (Biacore), supernatant antibody on Protein A chip, IL-6 flowed, 37 C).

Row | Binder | Kd | koff | kon
22 | B8 | 611 pM | 0.000414 s⁻¹ | 677000 M⁻¹ s⁻¹
23 | B9 | 258 pM | 0.000562 s⁻¹ | 2.18e+06 M⁻¹ s⁻¹
24 | B10 | 242 pM | 0.000485 s⁻¹ | 2e+06 M⁻¹ s⁻¹
25 | B11 | 166 pM | 0.000539 s⁻¹ | 3.24e+06 M⁻¹ s⁻¹
26 | B12 | 259 pM | 0.000461 s⁻¹ | 1.78e+06 M⁻¹ s⁻¹
27 | B13 | 246 pM | 0.000529 s⁻¹ | 2.15e+06 M⁻¹ s⁻¹
28 | B14 | 296 pM | 0.000483 s⁻¹ | 1.63e+06 M⁻¹ s⁻¹

These binders were tested against T3, human IL-6 (assay: SPR Biacore, purified Ab on Protein A chip, 37 C).
Procedure: as §1

Row | Binder | Kd | koff | kon
29 | B15 | 198 pM | 0.000327 s⁻¹ | 1.65e+06 M⁻¹ s⁻¹
30 | B16 | 212 pM | 0.000254 s⁻¹ | 1.2e+06 M⁻¹ s⁻¹
31 | B17 | 244 pM | 0.000412 s⁻¹ | 1.69e+06 M⁻¹ s⁻¹
32 | B18 | 252 pM | 0.000401 s⁻¹ | 1.59e+06 M⁻¹ s⁻¹
33 | B19 | 209 pM | 0.00038 s⁻¹ | 1.82e+06 M⁻¹ s⁻¹
34 | B20 | 201 pM | 0.000341 s⁻¹ | 1.69e+06 M⁻¹ s⁻¹
